The test deals with eRF3 fused with maltose binding protein (MBP-eRF3) ( (the printed NM_002094.3 is …, UniProt P15170-3 1-637)). Briefly: pull-down.

B1: SFL fused with glutathione S-transferase (GST-SFL) (natural protein)
chain: not shown
As to B1, the binding result was “binds”.

The values above are taken from PMC8486322 (Cell, 2019).
